Data as given in the supplement of paper PMC9170038.

Each sequence was assayed on MS2 coat protein (assay: apparent KD of MS2 coat protein; higher = weaker reporter binding). Conditions: Eterna round: R107; input ligand: theophylline 2 mM.
In short: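 Apparent KD was obtained for each design as the median of normalised binding-curve fits over its clusters. RNA switches transcribed on-chip from Illumina sequencing clusters were titrated with SNAP-549-labelled MS2 coat protein (twofold steps, 0.7 or 1.5 nM to 3 µM) in 100 mM Tris-HCl pH 7.5, 80 mM KCl, 4 mM MgCl2, without or with constant ligand.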

Going from “GUACCACAGUCGGCCGCCACUAAGUUGUAUUCCAGCAGGACGAAACAUGAGGAUCACCCAUGUCCUAGGACCGGGACUUCCGUCG [theeternabot_sameState_MS2_Trp_B_41]” to “AAUGUAUGCCACAUGAGGAUCACCCAUGUGCGAGGACCGGUACGGCCGCCACUCGGUCGGUGGUUAAUGAAGAUAUACAAUAAUG [XTryp A #12]”, the “apparent KD of MS2 coat protein” value falls from 25.6 nM to 13.5 nM (1.9-fold).

Going from “CCUAACCGAUCGGCCGCCACUGACCGGUACCUCUUCGAAACCCGCCACAUGAGGAUCACCCAUGUCAGGACCGGGAUUGCACAGG [Inxeus]” to “GGGUGGUAGGCGGCCGCCACUGAUUUUCAUUCCUGGAUGACAUGAGGAUCACCCAUGUUUACGGGCAGGACCGGGCCUGCUGUGG [aaaW]”, the “apparent KD of MS2 coat protein” value rises from 17.8 nM to 66.6 nM (3.7-fold).

“UGUAUGGACUGAAGGAGCGGGUAAUAAACCUGAGGAUCACCCAGGUAAUAGGCGAAAGCCACCCAGGUAGGUCGCAGUCCAUACU” and “UAUCGUCAGACGGCCGCCACUAGAACAUGAGGAUCACCCAUGUACUAGUGGCAUACCUCAUGAACUAGGACCGGGUCUGACGAAU [(Trp1)-(Ms2)-(T)'-(M)'-(Trp2)_Design10]” are within 1.5-fold of each other in “apparent KD of MS2 coat protein” value: 15.1 nM for the first, 10.2 nM for the second.

“UAUCCACAUGAGGAUCACCCAUGUUAGGAAGGAGCGGUGGAUGCACCAGGUAGGUCGCCUAGCUGAGGACUGUCGGUGGAUUCGU [Exclusion - Arginine A (Freestyle 21)]” and “AAGAACAUGAGGAUCACCCAUGUGAUCGUUCGAGGACCGGUACGGCCGCCACUCGGACCUGUGUCCAGGCACGGGCCGACGCGAC [theeternabot_sameState_MS2_Trp_A_21]” are within 1.5-fold of each other in “apparent KD of MS2 coat protein” value: 131 nM for the first, 106 nM for the second.

In the case of “CGGGUUAGGGCGGCCGCCACUGUGGCUACGGUACAUGAGGAUCACCCAUGUUUGUGGUUGAUCUACAGGACCGGGCCCUGACACG [Geusrean]”, the “apparent KD of MS2 coat protein” value is reported as 2560 nM.

Same assay, conditions: Eterna round: R107; input ligand: tryptophan 2.4 mM

“GGGAGAUGAAUAGAAUGAGAUGACACAGAAGGAGCGUGAAUUAACACAGGUAGGUCGCUGACAACAUGAGGAUCACCCAUGUAUU [Same State Arginine A GF3]” and “AGUAGACACGCGGCCGCCACUUGAGGAUCACCCAGGUGGUGUGUACUUGAAAACAAGUGCACAUCAAGGACCGGGCGUGUCUACA [Omei Tryp B SS D v2]” are within 1.5-fold of each other in “apparent KD of MS2 coat protein” value: 18.9 nM for the first, 27.3 nM for the second.

First: CGCAACCAACAUGAGGAUCACCCAUGUGAAGGAGCGCCGAAGAAGGCAGGUAGGUCGCACAUGAAUAAAUCAUGUAAAAGGUUGC [MAT - Exclusion Arginine A - Mod of Eli - D19]
Second: UGUAUGUGAUUUGAUACCAGACCAGCUGGUGGUGCAUGAGGAUCACCCAUGCAGGUUUGGGUCCCUUGGCAGCAAAUCGCAUACU [SS Theo B #24 Ms17]
The “apparent KD of MS2 coat protein” value of the first is 3.2-fold lower: 40.9 nM for the first, 129 nM for the second.

First: AGCGGAACGGAAGGGUCCCAAAAUUGUGAUACCAGCCUUGAAUCCGGCCCUUGGCAGCACAUGAGGAUCACCCAUGUACUGCGAU [Laanor]
Second: GUACAUGAGGAUCACCCAUGUGGUAGGGAUACCAGCCAGAAGAAAGGCCCUUGGCAGCUUGUAUUUAGUGUGGGUUUGUUUGUUC [Exclusion - Theophylline A]
The “apparent KD of MS2 coat protein” value of the first is 2-fold lower: 12.8 nM for the first, 25.6 nM for the second.

Compared with “GCAACAUGAGGAUCACCCAUGUUUACUGAAGGAGCGAGACAGAACUCAGGUAGGUCGCAGACGGCGGAAUCGCCGACGACAUGGG [Exclusion Arginine A GF24]”, “ACAUGAGGAUCACCCAUGUUCCUCGCCGAUACCAGUGAAGAAGAACGCCCUUGGCAGCGGAAAGAAUAUUUUGGAGAUGAGGUAU [6.W]” is 7.6-fold higher in “apparent KD of MS2 coat protein” value: 21.6 nM for the first, 165 nM for the second.

“CAGGUUAGGGCGGCCGCCACUGUGGCUACGGUACAUGAGGAUCACCCAUGUUUGUGGUUGAUCUACAGGACCGGGCCCUGACACG [Matidier]” and “UGUAUGUGAUUUGAUACCAGACCAGCUGGUGUUACAAGAGGAUCACCCUUGUAGGUUUGGGUCCCUUGGCAGCAAAUCGCAUACU [SS Theo B #24 Ms4]” are within 1.5-fold of each other in “apparent KD of MS2 coat protein” value: 272 nM for the first, 190 nM for the second.

Going from “UGUAACAUGAGGAUCACCCAUGUGAGUGAUACCAGAUUAGUAGUAGUCCCUUGGCAGCACAUUGGGCGAGUGUAUAGUCUAUGCG [Same State - Theophylline A (Freestyle 11)]” to “GCAAUACAUGAGGAUCACCCAUGUGCAGAUACCAGAGGUGCGUGCCUCCCUUGGCAGCUGCGACGCUCUGGAAGCUUGUGUGUCU [Exclusion Theophylline A GF27]”, the “apparent KD of MS2 coat protein” value falls from 155 nM to 21.2 nM (7.3-fold).

First: UUAAUCAAUAUAGAAAACUAUAUUGCAGAAGGAGCGUGAUAAAACACAGGUAGGUCGCUGAAGGGAACAUGAGGAUCACCCAUGU [AstrosSSArgA#5]
Second: ACGAACGCACCUGAGGAACACCCAGGUGAUACCAGCCUGGAAACAGGCCCUUGGCAGCACCUAAAAUAAAGGUAACGUUCGAAUA [TheoAX8 #MicroSwitchBubble #AlternativeMS2]
The “apparent KD of MS2 coat protein” value of the first is 3.8-fold lower: 26.2 nM for the first, 98.9 nM for the second.

Compared with “ACAUGAGGAUCACCCAUGUAUGAUGUUCCUCGAGGACCGGUACGGCCGCCACUCGAACGAGUGGCGCGCGCGCGCGCGCGCGCGC [aUa]”, “AAGUGGCACGGAAGGAGCGAGUUUACCUAGAUAACAUGAGGAUCACCCAUGUAUAAUGGGACUCAGGUAGGUCGCCGCUGUCACU [#30 Same State - Arginine B]” is 2.5-fold higher in “apparent KD of MS2 coat protein” value: 16.4 nM for the first, 41.5 nM for the second.

Going from “UAUCCACAUGAGGAUCACCCAUGUAGGGAAGGAGCGGUGAUUUCACCAGGUAGGUCGCCUUGCUCAGGGUUGCCGGUGGAAUCGU [Exclusion - Arginine A (Freestyle 34)]” to “GCCUAGCAGCGAAGGAGCGAGGUAAAUAAAUAAAUAAAUAACAAGAGGAUCACCCUUGUUCCUCAGGUAGGUCGCGCUGCUAGGC [SSAB Alternative Aptamer #1 NP+V+V2]”, the “apparent KD of MS2 coat protein” value rises from 9.73 nM to 17.9 nM (1.8-fold).

Compared with “UUGUUGUUUGGAAGGAGCGUGGAUGAGUGAGAACAUGAGGAUCACCCAUGUUGUAUGAUACCGCAGGUAGGUCGCCGGGUGGUGG [11.aB]”, “CCUAACCGAUCGGCCGCCACUGACCGGUACCUCUUCGAAACCCGCCACAUGAGGAUCACCCAUGUCAGGACCGGGAUUGCACAGG [Inxeus]” is 2.2-fold higher in “apparent KD of MS2 coat protein” value: 17.5 nM for the first, 38.1 nM for the second.

First: UUUGCACAUGAGGAUCACCCAUGUACAGAUACCAGCCUCAUCUACGGCCCUUGGCAGCUGAGACAAUGGUGACAUGAUGGGCUUU [Istein]
Second: AUAAAUAUAACCGAUACCAGCCUUAUACAUGAGGAUCACCCAUGUUAUGCUUCCUUUCUUGGCCCUUGGCAGCGGAAAUGGGUAA [SSTheo B #13]
The “apparent KD of MS2 coat protein” value of the first is 3.6-fold lower: 12.3 nM for the first, 44.8 nM for the second.

First: GAGGAUCAAGUAGAUACCAGCACAUGAGGAUCACCCAUGUAAUGGUGUCCCUCAAGAACGUGCCCUUGGCAGCUACUAUCAAAAU [Enarbeer]
Second: ACAUGAGGAUCACCCAUGUCACGGCACGAUACCAGCUGAUGCGGUGGCCCUUGGCAGCGUGACGUUUGGUCCCGCGGAUGACGGG [zzmullin]
The “apparent KD of MS2 coat protein” value of the first is 3.6-fold lower: 14.7 nM for the first, 53.2 nM for the second.

Compared with “AUCGUACCUGAUGAUACCAGCAUGUGAUCGUAACAUGAGGAUCACCCAUGUGAUCAGUGAUGCCCUUGGCAGCAUGAUCGGUACA [Same State - Theophylline B (Freestyle 15)]”, “UGUAUGGACUGAAGGAGCGGGUAAUAAACCUGAGGAUCACCCAGGUAAUAGGCGAAAGCCACCCAGGUAGGUCGCAGUCCAUACU” is 2.8-fold lower in “apparent KD of MS2 coat protein” value: 36.7 nM for the first, 13.2 nM for the second.

Compared with “AAUAACAUGAGGAUCACCCAUGUAAAAGAUACCAGAGUGAUGAUCCUCCCUUGGCAGCUUAAAACGCUAUUGAUUACAAUAGCGA [Mat - Same State Theophlline A - Mod of Eli - D4]”, “UAUCCACAUGAGGAUCACCCAUGUUAGGAAGGAGCGGUGGAUGCACCAGGUAGGUCGCCUAGCUGAGGACUGUCGGUGGAUUCGU [Exclusion - Arginine A (Freestyle 21)]” is 2.1-fold higher in “apparent KD of MS2 coat protein” value: 45.3 nM for the first, 94.9 nM for the second.

For “CGGGUUAGGGCGGCCGCCACUGUGGCUACGGUACAUGAGGAUCACCCAUGUUUGUGGUUGAUCUACAGGACCGGGCCCUGACACG [Geusrean]”, the “apparent KD of MS2 coat protein” value was 203 nM.
